Paper doi:10.1101/2020.12.02.408153

How the values were obtained:
Experiment in all cases: SPR
[1] = molecular target: SARS-CoV-2 spike glycoprotein ectodomain with poly-histidine tag (SARS-CoV-2 | bacteriophage T4) (UniProt P0DTC2)
[2] = molecular target: SARS-CoV-2 extended S1 subunit (SARS-CoV-2) (UniProt P0DTC2)
[3] = molecular target: SARS-CoV-2 spike glycoprotein ectodomain with double Strep II tag (SARS-CoV-2 | bacteriophage T4) (UniProt P0DTC2)

Sequence of human angiotensin converting enzyme 2 (Q9BYF1 20-611): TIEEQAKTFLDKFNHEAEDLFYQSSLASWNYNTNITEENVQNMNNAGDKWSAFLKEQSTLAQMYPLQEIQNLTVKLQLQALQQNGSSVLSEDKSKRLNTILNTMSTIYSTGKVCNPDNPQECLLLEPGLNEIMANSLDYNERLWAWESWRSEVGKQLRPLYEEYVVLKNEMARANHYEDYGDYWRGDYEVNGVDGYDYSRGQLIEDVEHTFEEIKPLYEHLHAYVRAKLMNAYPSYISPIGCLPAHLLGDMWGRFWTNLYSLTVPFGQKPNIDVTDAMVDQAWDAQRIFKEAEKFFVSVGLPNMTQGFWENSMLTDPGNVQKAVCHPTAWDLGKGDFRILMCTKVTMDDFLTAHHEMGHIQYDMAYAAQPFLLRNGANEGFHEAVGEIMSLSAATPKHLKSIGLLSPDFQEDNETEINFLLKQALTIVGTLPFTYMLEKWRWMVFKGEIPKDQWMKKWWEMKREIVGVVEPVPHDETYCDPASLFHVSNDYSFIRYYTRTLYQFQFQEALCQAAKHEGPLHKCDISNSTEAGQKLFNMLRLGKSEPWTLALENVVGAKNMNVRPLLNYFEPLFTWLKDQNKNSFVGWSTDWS

**Q.** With LL-37 (peptide) as the substance, how does the Kd [1] read?
**A.** 420 nM

**Q.** And the IC50 [2]?
**A.** 170 nM

**Q.** And the Kd [2]?
**A.** 200 nM

**Q.** What about the IC50 [3] of the same substance?
**A.** 740 nM

**Q.** And the Kd [3]?
**A.** 410 nM

**Q.** “human angiotensin converting enzyme 2 (from UniProt Q9BYF1-1 20-611) (receptor)” was tested. Which Kd [1] did it give?
**A.** 370 nM

**Q.** And the Kd [2]?
**A.** 610 nM

**Q.** What about the Kd [3] of the same substance?
**A.** 370 nM
